What was measured:
[1] = target: T1, mutant kcsa K+ channel (Q58A, T61S, R64D) (Streptomyces lividans, UniProt P0A334, P2A/Q58A/R64D/T61S); test: Competition binding assay: unlabeled toxin against labeled Agitoxin2 on mutant kcsa K+ channel resin; conditions: for Kd: labeled toxin 0.06 μM, Kdhot 0.62 μM, FIG. 11B, read-out: competing toxin dissociation constant Kdcold; for decrease of affinity caused by the toxin mutation: relative to wild type agitoxin2
T1 construct: made in house; host or cells: E. coli XL-1 Blue
T1 sequence (P0A334 1-158 P2A/Q58A/T61S/R64D limits assumed): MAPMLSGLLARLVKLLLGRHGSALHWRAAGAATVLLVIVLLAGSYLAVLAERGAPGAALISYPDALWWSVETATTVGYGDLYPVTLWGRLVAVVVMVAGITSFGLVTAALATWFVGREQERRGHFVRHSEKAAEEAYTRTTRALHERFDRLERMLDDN
Description: (§1) Three mutations (Q58A, T61S, R64D) were introduced into the kcsa K^+ channel gene to modify its pore region sequence using PCR mutagenesis and confirmed by DNA sequencing. The gene also contained a mutation at the second residue (P2A) to introduce an ncol restriction endonuclease site and it was lacking the last two carboxyl terminal residues (both Arg) to avoid proteolysis during the protein preparation. This gene was cloned into the pQE60 vector for expression with a carboxyl terminal thrombin and hexahistidine fusion. Channel protein was expressed in XL-1 Blue strain of E. coli (Stratagene) by induction with […] at a concentration of 1.0 mM. Three hours following induction bacteria were sonicated in 50 mM Tris buffer (7.5), 100 mM KCl, 10 mM Mg2SO4, 25 mg DNAse 1, 250 mM sucrose, in addition to pepstatin, leupeptin, and PMSF. The channel was extracted in the same solution containing 40 mM decylmaltoside (Anatrace) at room temperature. Following centrifugation the supernatant was bound to cobalt resin (Talon) at a protein to resin ratio that will saturate the resin. The resin was washed, and detergent concentration was lowered to 10.0 mM. One mL columns were prepared. The control resin (no channel) was handled in the same manner. The resin preparation was the same for mass spectrometry and binding studies.
(§2) Wild type and mutant agitoxin2 were prepared (10). Tritiated N-ethylmaleimide (NEN Life Sciences) was conjugated to agitoxin2 D20C (14). Binding was performed in a 300 μL volume containing 50 mM Tris (7.5), 100 mM KCl, 10 mM declymaltoside, and 0.3 μL of cobalt resin saturated with the mutant kcsa K^+ channel for 30 minutes at room temperature. Following brief centrifugation the supernatant was removed, resin was applied to a filter, rinsed briefly with ice cold buffer, and then counted in a scintillation counter. All binding measurements were made with a paired control containing a saturating concentration (200 times KD) of unlabeled wild type agitoxin2 to determine nonspecific binding. The competition assay was carried out under the same conditions. Labeled Agitoxin2 at 0.06 μM was always present and unlabeled toxin was added to compete with bound labeled toxin.
as §2, with “17. Wild” for “Wild”, “Kd)” for “KD)”

[2] = target: T1, mutant kcsa K+ channel (Q58A, T61S, R64D); test: Mutant kcsa K+ channel cobalt column screen of scorpion venom, eluate analysed by MALDI-TOF mass spectrometry; assay type: binding; conditions: 40 mg Leiurus quinquestriatus hebraeus venom on 1 mL column, imidazole elution
Description: FIG. 10. Mass Spectra of scorpion toxins before and after channel column purification MALDI-TOF mass spectra of venom before purification (A) and after elution from a cobalt column in the absence (B) and presence (C) of attached mutant kesa K^+ channel. The accuracy of the mass measurements (±0.3 Da) permitted identification of most of the major peaks in the mass spectra searched from databases of known toxins of the Leiurus quinquestratus hebraeus scorpion (D). The kesa-binding component labeled * could not be assigned to a known scorpion toxin. The component labeled X (4193.0 Da) binds nonspecifically to the column and was not identified. MALDI_MS was performed with the MALDI matrix 4-hydroxy-α-cyano-cinnamic acid (16 of Example II).
as §1, with “Following centrifugation the supernatant was bound to cobalt resin (Talon) at a protein to resin ratio that will saturate the resin. The resin was washed, and detergent concentration was lowered to 10.0 mM. One mL columns were prepared. The control resin (no channel) was handled in the same manner. The resin preparation was the same for mass spectrometry and binding studies.” left out
Guided by knowledge of the toxin receptor on the Shaker K^+ channel, set forth in SEQ ID NO:4, three point mutations were introduced into the kcsa K^+ channel (SEQ ID NO: 1) that should render it sensitive to scorpion toxins (FIG. 9). […] The eluate was analyzed with MALDI-TOF mass spectrometry, focusing on the low mass range appropriate for scorpion toxins (about 4000 Da). […]

Row | Substance | Kd [1] | decrease of affinity caused by the toxin mutation [1] | binding to the channel column (mass peak in the eluate) [2]
1 | K27A: Agitoxin2 mutant, Lys 27 substituted by alanine | 81 µM | 130 fold | 
2 | N30A: Agitoxin2 mutant, Asn 30 substituted by alanine | 27 µM | 45 fold | 
3 | agitoxin2 | 0.62 µM |  | dramatic enhancement of specific peaks
4 | charybdotoxin |  |  | dramatic enhancement of specific peaks
5 | chlorotoxin |  |  | did not bind

From patent US6641997B1, “Assays for screening compounds which interact with cation channel proteins, mutant prokaryotic cation channel proteins, and uses thereof” (The Rockefeller University, priority 1998, dated 2003)
